Target: the molecule itself
Assay: western blot of Prdx4 dimers and monomers; primary motor neuron cultures treated with H2O2, Tempol or Edaravone; cells lysed with 100 mM maleimide; anti-mPrdx4 blot

B1: mouse Prdx4, endogenous in primary motor neuron cultures (enzyme, UniProt O08807 41-274, looked up)
chain: LESDERFRTRENECHFYAGGQVYPGEASRVSVADHSLHLSKAKISKPAPYWEGTAVINGEFKELKLTDYRGKYLVFFFYPLDFTFVCPTEIIAFGDRIEEFKSINTEVVACSVDSQFTHLAWINTPRRQGGLGPIRIPLLSDLNHQISKDYGVYLEDSGHTLRGLFIIDDKGVLRQITLNDLPVGRSVDETLRLVQAFQYTDKHGEVCPAGWKPGSETIIPDPAGKLKYFDKLN
notes: Peroxiredoxin 4 (Prdx4), mouse, endogenous; also called mPrdx4; source: endogenous, primary motor neuron cultures from E11.5 mouse spinal cords
stoichiometry N: 2

From article PMC4432624, “Prdx4 is a compartment-specific H2O2 sensor that regulates neurogenesis by controlling surface expression of GDE2” (Nature Communications, 2015)
